Experimental data as given in patent US20120172315A1 (CENTRE NATIONAL DE LA RECHERCHE SCIENTIFIQUE, published 2012).

Biological target: eIF4E in B lymphocytes from patients suffering from CLL (human (patients' cells);  for …, UniProt P06730 2-217, limits assumed)
Test: cell-based or functional assay

Sequence of eIF4E in B lymphocytes from patients suffering from CLL (P06730 2-217 limits assumed): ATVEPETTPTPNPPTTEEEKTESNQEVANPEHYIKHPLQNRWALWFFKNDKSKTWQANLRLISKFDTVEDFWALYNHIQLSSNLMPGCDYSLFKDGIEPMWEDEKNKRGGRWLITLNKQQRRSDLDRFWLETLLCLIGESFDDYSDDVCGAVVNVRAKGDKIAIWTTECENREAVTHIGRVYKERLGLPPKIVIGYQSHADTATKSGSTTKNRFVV

B1: A1 WT IRS peptide (peptide)
peptide: RRKYGRDFLLRFRYIRS
  IC50, defined as the concentration of peptide capable of causing the death of 50% of the cells after 24 H (CLL cells): ~28 µM
  IC50, defined as the concentration of peptide capable of causing the death of 50% of the cells after 24 H (CLL cells, second patient): 24 µM
